The data set concerns the molecule itself. The data set is described as follows: crystal structure.

B1: Salmonella typhi outer membrane phospholipase A (OmpLA), leaderless (21Q-289F) (enzyme)
chain: QEATIKEVHDAPAVRGSIIANMLQEHDNPFTLYPYDTNYLIYTNTSDLNKEAISTYNWSENARKDEVKFQLSLAFPLWRGILGPNSVLGASYTQKSWWQLSNSKESSPFRETNYEPQLFLGFATDYRFAGWTLRDVEMGYNHDSNGRSDPTSRSWNRLYTRLMAENGNWLVEVKPWYVIGSTDDNPDITKYMGYYQLKIGYHLGEAVLSAKGQYNWNTGYGGAEVGLSYPVTKHVRLYTQVYSGYGESLIDYNFNQTRVGVGVMLNDIF
B1: the binding result was “binds”.

Source of the values: paper doi:10.1101/2020.01.08.898262 (bioRxiv, 2020).
